Here are results for 40 sequences from the nanobody polyreactivity screen of Harvey et al. (2022).

This series can be described thus: yeast display, Sf9 membrane polyspecificity reagent, FACS + sequencing; frameworks hold sequencing errors. The gist of the method:
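A nanobody's polyreactivity label depends on the gate it was sorted from. Yeast display cells were stained with 10% biotinylated, detergent-solubilized Sf9 membrane reagent for 1 hour at 4 °C, enriched on streptavidin microbeads and sorted by FACS. The low and high (top ~1%) gates were set on anti-HA fluorescence for expression and streptavidin fluorescence for reagent binding.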
In the case of “QVQLVESGGGLVQAGGSLRLSCAASGRIFIHYAMGGYRHAPGKERELVAAISASGGTTNYADSVKGRFTISRDNAKNTVYLQMNSLKPEDTAVYYCNKDYPQNPLPASSYYLGRFDYWGQGSQVTVSS”, the “polyreactivity (PSR sort gate)” value is given as “high polyreactivity”.

Regarding “QVQLQESSGGLVQAGGSLRMSCAASGTIFHFHIMGWYRQAPGKEREFVAAISYGTSTYYADSVKGRFTISRDNAKKTVYLQMNSQKPEDTAVYYCAVYDDLEVYCWYWGQGTEVTVSS”, the “polyreactivity (PSR sort gate)” value is “low polyreactivity”.

For the sequence “QVQLVESGGGIVQAGGSLRLSCAPSGFIFRVYTMGWYRQAPGKERELVAAISYRGGRTYYADSVKGRFTISRDNAKNSVYLQMNILKPEDTAVYYCAAERVNREFDYWGQGTLVTVSS”, the “polyreactivity (PSR sort gate)” value was “high polyreactivity”.

Turning to “QVQLVESGGGLVQAGGSLRLSCAASGRIFSPYTMGWYRQAPGKERELVAAINERGTSTYYADTVKGRFSISRDNAKNTVYLQKNSLKPEDTAVYYCAARVRQRRYGTTSGGYDYWGQGTQVTVSS”, the “polyreactivity (PSR sort gate)” value was “high polyreactivity”.

For the sequence “QVQRVESGGGLVQAGASLRLSCAASGRTFRSYTMGWYRQAPGKERELVATISGSGSTNYADSVKGRFTISRDNAKITVYLQMNSLKPEDTAVYYCAADVSLSVFKLDYWGQGTQVTVSS”, the “polyreactivity (PSR sort gate)” value is reported as “low polyreactivity”.

Regarding “QVQLVESGGGLVQAGGSLRLSCAASGSIAHYAMGWYRQDPGKERELVAAINWSGGSTNYADSVKGRFTISRDNAKNTVYLQMNSMKPEDTAVYYCSAQKRGPGYPYYYWGQGTQVTVSS”, the “polyreactivity (PSR sort gate)” value is on record as “high polyreactivity”.

As to “QVQLVESGGGLVQAGGSLRLSCAASGSTYYYAMGWYREAPGKERELVAAISSSSGSTYYADSVKGRFTISRDNAKNTVYLQLNSLKPEDTAVYYCAAEGYKGWVYEYDYWGQGTQVTVSS”, the “polyreactivity (PSR sort gate)” value was “low polyreactivity”.

With “QVQLVESGGGLVQAGCSLRLSCAASGSTFPYNAMGWYRQAPGKERELVATIDATGGSTSYADSVKGRFTISRDNAKNTVYLQMNSLKPEDTAVYYCAAVAYILYFYAYYLTYDYWGQGTQVTVSS”, the “polyreactivity (PSR sort gate)” value is listed as “low polyreactivity”.

On to “QVQLVESGGGLVQAGGSLRLSCAASGIIIGGNAMGWYRQARGKERELVAAINSDDSTYYADSVKGRFTISRDNAKNTVYLQMNSLKPEDTAVYYCAVTETYYSPYSGYWYEYDHWGQGTQVTVSS”, for which the “polyreactivity (PSR sort gate)” value is recorded as “high polyreactivity”.

As for “QVQLVESGGGLVQAGGSLRLSCAASGRIFVKYAMGWYRQAPGKERELVARITRGGRTNYADSVKGRFTISRDNAKNTVYLQMNSLKPEDTAVYYCNAGWGMRLSWLGNYWGQGTQVTVSS”, the “polyreactivity (PSR sort gate)” value is on record as “high polyreactivity”.

“QVQLVESGGGLVQAGGILRLSCAASGFIIRGNVMGWYRQAPGKERELVAAISGRGGSTYYADSVKGRFTISRDNAKNTVYLQMNSLKPEDTAVYYCNAAGLYNSRLDYWGQGTQVTVSS”: the “polyreactivity (PSR sort gate)” value was “high polyreactivity”.

“QVQLVESGGGLVQAGGSLRLSCAASGSIFGIYAMGWYRQAPGKERELVAAISKSGGGTYYADSVKGRFTISRDNAKNTVYLQMNSLKPEDTAVYYCNADYWQWYSYWYDYWGQGTQVTVSS”: the “polyreactivity (PSR sort gate)” value is “high polyreactivity”.

Take “QVQLVESGGGLVQAGGSLRLSCAASGFTFPYYAMGWYREAPGKERELVAAISFSGGRTYYADSVKGRFTISRDNAKNTVYLQMNSLKPEDTAVYYCAAAKTYYRYNYWGQGTQVSVSS”: the “polyreactivity (PSR sort gate)” value is given as “high polyreactivity”.

In the case of “QVQLVESGGGLVQAGGSLRLSCAASGSIFSSYAMGWYRQAPGKEREVVASINSAGSTNYADSVKGRFTISRDNAKNTVYLQMNSLKPDDTAVYYCAASGGTWVNYRPEYDYWGQGTQVTVSS”, the “polyreactivity (PSR sort gate)” value is “low polyreactivity”.

As for “QVQLVETGGGLVQAGGSLRLSCAASGITFERYVMGWYRQAPGKERELVAVITKRGGNTYYADSVKGRFTISRDNAKNTVYLQMNSLKPEDTSVYYCATRSGRSTGDYWGQGTQVTVSS”, the “polyreactivity (PSR sort gate)” value is “high polyreactivity”.

Take “QVQLVESGGGLVQAGGSLRLSCAASGFTIWDYAMGWYRQAPGKERELVAAISWSGGSTYYADSVKGRFTISRDNAKNTVYLQMNSLKPEDTAVYYCNAVHYSHHGYDYWGQGTQVTVSS”: the “polyreactivity (PSR sort gate)” value was “low polyreactivity”.

On to “QVQLVESGGGLVQAGGSLRLSCAASGSIFVYNAMGWYRHAPGTERELVAAISRRGGSTYYADSVKGRFTISRDNAKNTVYLQMNSLKPEDTAVYYCAAFASATRYDYWGQGTQVTVSS”, for which the “polyreactivity (PSR sort gate)” value is recorded as “high polyreactivity”.

As for “QVQHVESGGGLVQAGGSLRLSCAASGSTSGKYAMGWYRQAPGKERELVAGITKGGGGTYYADSVKGRFTISRDNAKNTVYLQLNSLKPEVTAVYYCAKYYGSGYYIYDYWGQGTQVTVSS”, the “polyreactivity (PSR sort gate)” value was “low polyreactivity”.

With “QVQLVESGGGLVQAGGSLRLSCAASGRIFHYYAMGWYRQAPGKERELVAGITSGGSTYYADSVKGRFTISRDNAKNTVYLQMNSLKPEDTAVYYCATTRYGGSRRYRPYDRERDYWGLGTQVTVSS”, the “polyreactivity (PSR sort gate)” value was “low polyreactivity”.

As to “QVQLVESGGGLVQSGGSLRLSCAASGSTFVSYDMGWYRQAPGKERELVADISWSGVSTYADSVKGRFTNSRDNAKNTVYLQMNSLKPEDTAVYYCAKDCDLYQRGGYYWGQGTQVTVSS”, the “polyreactivity (PSR sort gate)” value was “low polyreactivity”.

On to “QVQLQESGGGLVQAGGSLRLSCAASGSISGPHVMGWSRQAPGKEREFVAAINVGANTYYADNVKGRFTISRDNAKNTVYLRMNSLKPEDTAVYYCAAVYYGDIGHEYWGQGTQVTVSC”, for which the “polyreactivity (PSR sort gate)” value was “low polyreactivity”.

“QVQLVESGGGLVQAGGSLRLSCAASGRIFIPYAMGWYIQAPGKERELVAAISSSGGSTYYADSVKGRFTISRDTAKNTVYLQMNSLKPEDTEVYFCAARLYWGYAYENYSSLFEYDYWGQGTQVTVSS”: the “polyreactivity (PSR sort gate)” value is reported as “low polyreactivity”.

Turning to “QVQLVESGGGLVQAGGSLRLSCAASGRTFGSYAMGWYRPAPGKERELVAGISWSGGITYYADSVKGRFTISRDNAKNSVYLQMNSLKPEDTAVYYCAADSVVWEMEYWGQGTQVTVSS”, the “polyreactivity (PSR sort gate)” value is “high polyreactivity”.

With “QVQLVESGAGLVQEGGSLRLSCAASGSIFVGNAMGWYRQAPGKERELVATISWSGGSTYYADSVKGRFTISRDNAKNTVYLQMNSLKPEDTAVYYCAKTPYRRYRYGGYTYRTYDYWGQGTQVTVSS”, the “polyreactivity (PSR sort gate)” value is “low polyreactivity”.

In the case of “QDQLVESVGGVVQAGGSLRLSCAASGRIIRTYAMGWYRQAPGKERELVATISYSSGRTYYADSVKGRFTISRDNAKNTVYLQMNSLKPEDTAVYYCARRRRSGSRQYYYWGQGTQVTVSS”, the “polyreactivity (PSR sort gate)” value is reported as “high polyreactivity”.

Take “QVQLVESGAGLVQEGGSLRLSCAASGFTFFGYAMGWYRQEPGKERELVATISDTGGSTYADSVKGRFTISRDTAKNTVYLQMNCVKPEDTAVYYCNARSVFYSMDYWGQGTQVTVSS”: the “polyreactivity (PSR sort gate)” value is recorded as “low polyreactivity”.

Take “QVQLVESGGGLVQAGGSLRLSCAASGSNFYDYAMGWYRQAPGKERELVAAISSGGGTYYADSVKGRFTISRDNAKNTVYLQMNSLKPEDTAVYYCNADTYEWFSDFSEDSYDYWGQGTQVTVSS”: the “polyreactivity (PSR sort gate)” value is “low polyreactivity”.

Take “QVQLVESGGGLVQAGGSLRLSCAASGLIFNLYAMGWYRQAPGKEREFVATITGIGGSTYYADSVKGRFTISRDNANNTVYLQMTSLKPEDTAVYYCAADAWFLPYNYWGQGTQVTVSS”: the “polyreactivity (PSR sort gate)” value is “low polyreactivity”.

“QVQLVESGGGLVQAGGSLRLSCAASGGTFRYNAKGWYRQAPGKERELFATISIRGASTYYADSVKGRITISRDNAKHSVYLQLNSLKPEDTAVFYCAAERRNSYVLLIKYNYWGQGTQVTVSS”: the “polyreactivity (PSR sort gate)” value is reported as “low polyreactivity”.

Regarding “QVQLVESGGGLVQAGGSLRLSCAASGSTFTVNAMGWYRQAPGKERELVAAINWSGGSTYYADSVKGRFTISRDNAKNTVYLQMNSLKPEDTAVYYCNKDREPYGYWSFDYWGQGTQVTVSS”, the “polyreactivity (PSR sort gate)” value was “low polyreactivity”.

“QVQLVESGGGLVNAGGSLRLSCAASGITLVVYGMGWYRQAPGKETELVAAMTSGGRTYYADSVTGRFTISRDNAKNTVYLQMNSLKPEDTAVYYCAADRYFRQYGRYYYWGQGTQVTVSS”: the “polyreactivity (PSR sort gate)” value is “high polyreactivity”.

“QVQLVESGGGLVQAGGSLRLSCAASGIIFLNYAMGWYRQAPGKERELDAGITGRGGITYYTDSVKGRFTISRDNAKNTVYLQMNSLKPEDTAVYYCAARRYRFAGDYRMYYWGQGTQVTVSS”: the “polyreactivity (PSR sort gate)” value is given as “high polyreactivity”.

As to “HVQLVESGGGLVQAGGSLRLSCAASGSIFIGNAMGWYRQAPGKERELVAAISKSDGRTYYADSVKGRFTISRDNAKNTVYLQMNSLKPEDTAVYFCAADAYWEPKVGFSLFDYWGQGTQVTVSS”, the “polyreactivity (PSR sort gate)” value is “low polyreactivity”.

“QVQLVESGGGLVQAGGSLRLSCAASGSIFPWYAMGWYRQAPGNERELVAAINQIGGGGTNYADSVKGRFTISRDNAKNTVYLQMNSLKPEDTAVYYCAADHVWIRAYRFTKGDDYWGQGTQVTVSS”: the “polyreactivity (PSR sort gate)” value is listed as “low polyreactivity”.

Consider “QVQLVESGGGLVQAGGRLRLSCAASGIFGYNALGWYRQAPGKERELVAAITSSGTSTYYADSVKGRFTISRDNAKNTVYLQMNSLKPEDTAVYYCAALHSGTWTGYGYWGQGTQVTVSS”, for which the “polyreactivity (PSR sort gate)” value was “low polyreactivity”.

As for “QVQLVESGGGLVQAGGSLRLSCAASGRIFTINAMGWYRQAPGKERELVATISDRGGSTYYADTVKGRFTISRDNAKNTVYLQMNSLKPEDTAVYYCAARWGRGLEFDYWGQGTQVTVSS”, the “polyreactivity (PSR sort gate)” value was “high polyreactivity”.

Take “QVQLVESGGGLVQAGGSLRLSCAASGFIFSLYAMGWYRQAPGKERELVAAITRGGSTKYADSVKGRFTISRDNAKNTVYLQMNSLKPEDTAVYYCAARYNGKLNWGQGTQVTVSS”: the “polyreactivity (PSR sort gate)” value is “high polyreactivity”.

Turning to “QVQLVESGGGLVQAGGSLRLSCAASGSIFRSYAMGWYRQSPGKERELVASISRRGGSTYYADSVKGRFTISRDNAKNTVYLQMNSLKPEDTAVYYCAAVRYNSRVSTTPSDMYYWGQGTQVTVSS”, the “polyreactivity (PSR sort gate)” value is “low polyreactivity”.

“QVQLVESGGGLVQSGGSLRLSCAASGFIFLSYAMGWYRQAPGKERELVAAISRRGGSTYYADSVKGRFTISRDNAKYTVYLQMNSLKPEDNAVYYCAADYGRITYNYWGQGTQVTVSS”: the “polyreactivity (PSR sort gate)” value is “high polyreactivity”.

Turning to “QFQLVESGGGLVQAGGSLRLSCAASGITFGDNAMGWYRQAPGKERELVAAISWSGDRTFYADSVKGRFTISRDNAKNTVYLQMNSLKPEDTAVYYCNAEIGWHNEGRLSTYDYWGQGTQVTVSS”, the “polyreactivity (PSR sort gate)” value was “low polyreactivity”.
